Experimental findings from US20090010911A1, “METHODS AND COMPOSITIONS FOR AFFECTING CYCLOPHILIN A REGULATION OF KINASES IN MODULATING CELLULAR ACTIVITIES” (IOWA STATE UNIVERSITY RESEARCH FOUNDATION, INC., priority 2007, published 2009) are described below.

In this data set the target is T1, Itk LKD enzyme (Mus musculus, UniProt Q03526).
T1 construct: linker kinase domain (Itk LKD); made in house; host or cells: Sf9 insect cells (baculovirus), co-infected 1:1 with Lck baculovirus
T1 sequence (Q03526 344-625 limits assumed): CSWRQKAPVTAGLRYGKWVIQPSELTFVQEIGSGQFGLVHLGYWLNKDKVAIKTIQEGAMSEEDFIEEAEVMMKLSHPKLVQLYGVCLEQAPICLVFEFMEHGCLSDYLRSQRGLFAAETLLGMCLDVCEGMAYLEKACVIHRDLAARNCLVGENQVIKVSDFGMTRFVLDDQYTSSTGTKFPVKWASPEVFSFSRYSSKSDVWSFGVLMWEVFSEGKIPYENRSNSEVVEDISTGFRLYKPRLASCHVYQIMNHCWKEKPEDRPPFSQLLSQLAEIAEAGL
Put plainly: Quantitative kinase assay, Km determination for Peptide B and PLCγ1 SH2C-Peptide B fusion. Format: biochemical. The source says: 5(a) Construction of a PLCγ1 SH2C-Peptide B fusion protein was based on alignment of Y783 within the PLCγ1 linker and the Tyr of Peptide B. The 14 amino acids of Peptide B were used to replace the last 16 amino acids of PLCγ1 SH2C-Y783-. The Tyr that is phosphorylated in each substrate is boxed. A mutant construct is also shown that contains serine in place of the tyrosine of peptide B. This site was mutated to serine instead of phenylalanine due to solubility problems associated with the Tyr to Phe mutation. 5(b) FLAG-tagged Itk LKD enzyme (1 μM) was incubated with 20 μM of the PLCγ1 SH2C-Peptide B fusion protein (lane 4) or 20 μM of the PLCγ1 SH2C-Peptide B(YS) mutant protein (lane 5) in an in vitro kinase assay. Lanes 1-3 are Itk enzyme alone, PLCγ1 SH2C-Peptide B substrate alone and PLCγ1 SH2C-Peptide B(YS) substrate alone, respectively, that have each been subjected to the same in vitro kinase assay conditions. (c & d) FLAG-tagged Itk LKD enzyme was incubated with increasing amounts of biotinylated PLCγ1 SH2C-Peptide B 5(c) or biotinylated Peptide B alone 5(d) in an in vitro kinase assay. 5(e) Kinetic parameters describing phosphorylation of Peptide B and the PLCγ1 SH2C-Peptide B fusion protein by Itk. Data shown are the average of two independent experiments.
Kinase assays and Western Blotting—Itk Full-length (FL), linker kinase domain (Itk LKD), kinase domain (Itk KD), full-length Btk or full-length Tec were incubated with the indicated substrates in an in vitro kinase assay buffer (50 mM Hepes pH 7.0, 10 mM MgCl2, 1 mM DTT, 1 mg/ml BSA, 1 mM Pefabloc and 200 μM ATP) for one hour at RT. The samples were boiled, separated by SDS-PAGE and transferred onto a PVDF membrane. The membranes were then blotted with either phosphotyrosine specific antibodies (anti-pY783 for PLCγ1 or pY223 Btk antibody used to detect pY180 in Itk, pY187 in Tec and pY223 in Btk (18)), an anti-phosphotyrosine antibody (4G10 from Upstate), or an anti-FLAG antibody (Sigma) and developed by standard chemiluminescence (Pierce) methods. Quantitative kinase assays (25): Km determinations for Peptide B [(Aminohexanoyl biotin-EQEDEPEGIYGVLF-NH2) (Anaspec Inc.)] and the biotinylated PLCγ1 SH2C-Peptide B fusion were carried out by incubating purified Itk LKD enzyme in reaction buffer (50 mM Hepes pH 7.0, 10 mM MgCl2, 1 mM DTT, 1 mg/ml BSA, 1 mM Pefabloc SC (4-(2-aminoethyl)-benzenesulfonyl-fluoride) and 200 μM ATP) and 5 μCi [^32P] ATP (GE Healthcare) at room temperature. Peptide B concentration was varied between 0-400 μM and PLCγ1 SH2C-Peptide B fusion concentration was varied between 0-80 μM. The enzyme concentration used for kinetic analysis was 0.9 μM. Each assay was done in duplicate. […]

B1: SH2-Peptide B fusion: PLCγ1 SH2C domain covalently linked to the amino terminus of Peptide B, biotinylated fusion protein (protein)
chain: QTNAHESKEWYHASLTRAQAEHMLMRVPRDGAFLVRKRNEPNSYAISFRAEGKIKHCRVQQEGQTVMLGNSEFDSLVDLISYYEKHPLYRKMKLRYPINEEALEKIGTAEPDFGAEQEDEPEGIYGVLF
modifications: left off: things letters cannot carry
notes: PLCγ1 SH2C domain covalently linked to the amino terminus of Peptide B, biotinylated fusion protein
As for B1, where the note is “compared to Peptide B alone”, the “better substrate (kcat/Km)” value is listed as 7 fold; the “increase in substrate affinity” value came out at 15 fold; the “kcat value, change on attachment of PLCγ1 SH2C domain to Peptide B” value is “only changed to a small extent”. In addition, under “phosphorylation by Itk LKD enzyme 0.9 μM, 200 μM ATP, room temperature”, the Km (in general, the concentration of substrate that gives half-maximal velocity) was found to be 5.64 µM.
